Source: publication PMC5242376 (Science signaling, 2016)

T1: His-tagged MuSK ectodomain (UniProt Q61006 22-494)
T1 sequence (looked up): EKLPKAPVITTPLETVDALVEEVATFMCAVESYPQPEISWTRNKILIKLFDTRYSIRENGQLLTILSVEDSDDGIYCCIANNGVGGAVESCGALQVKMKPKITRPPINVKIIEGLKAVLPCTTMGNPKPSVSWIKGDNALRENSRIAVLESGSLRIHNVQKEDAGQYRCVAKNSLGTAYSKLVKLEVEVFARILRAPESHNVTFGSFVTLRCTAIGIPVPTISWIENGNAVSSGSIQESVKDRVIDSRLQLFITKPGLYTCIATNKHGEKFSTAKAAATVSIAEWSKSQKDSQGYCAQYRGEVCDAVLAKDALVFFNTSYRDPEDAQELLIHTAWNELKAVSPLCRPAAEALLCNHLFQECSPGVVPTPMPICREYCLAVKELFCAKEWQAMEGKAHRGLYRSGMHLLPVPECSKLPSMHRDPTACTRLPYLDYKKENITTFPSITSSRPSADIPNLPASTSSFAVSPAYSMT

T2: full-length Fc-fusion MuSK ectodomain (UniProt Q61006 22-494)
T2 sequence (looked up): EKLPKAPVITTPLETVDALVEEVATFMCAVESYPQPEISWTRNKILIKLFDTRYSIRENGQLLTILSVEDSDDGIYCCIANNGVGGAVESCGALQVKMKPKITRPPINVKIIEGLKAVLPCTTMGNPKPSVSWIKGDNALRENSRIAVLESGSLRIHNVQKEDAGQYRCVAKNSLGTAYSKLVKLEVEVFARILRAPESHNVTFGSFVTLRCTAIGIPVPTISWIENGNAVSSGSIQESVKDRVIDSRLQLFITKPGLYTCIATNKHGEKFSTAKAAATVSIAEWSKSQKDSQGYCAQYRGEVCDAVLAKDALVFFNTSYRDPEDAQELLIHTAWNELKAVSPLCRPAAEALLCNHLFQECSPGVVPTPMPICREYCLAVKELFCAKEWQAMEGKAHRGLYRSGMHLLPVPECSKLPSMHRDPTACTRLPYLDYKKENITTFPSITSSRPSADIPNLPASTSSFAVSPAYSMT


What was measured:
[1] = biological target: T1, His-tagged MuSK ectodomain; assay: SPR
[2] = biological target: T2, full-length Fc-fusion MuSK ectodomain; assay: ELISA

Row | Kd [1] | EC50 [2] | Binder
1 | 11.8 nM | – | recombinant human BMP7 (ligand, UniProt P18075 293-431, looked up) STGSKQRSQNRSKTPKNQEALRMANVAENSSSDQRQACKKHELYVSFRDLGWQDWIIAPEGYAAYYCEGECAFPLNSYMNATNHAIVQTLVHFINPETVPKPCCAPTQLNAISVLYFDDSSNVILKKYRNMVVRACGCH
2 | 5.6 nM | – | recombinant human BMP2 (ligand, UniProt P12643 283-396, looked up) QAKHKQRKRLKSSCKRHPLYVDFSDVGWNDWIVAPPGYHAFYCHGECPFPLADHLNSTNHAIVQTLVNSVNSKIPKACCVPTELSAISMLYLDENEKVVLKNYQDMVVEGCGCR
3 | – | ~30 nM | recombinant human BMP4 (ligand, UniProt P12644 293-408, looked up) SPKHHSQRARKKNKNCRRHSLYVDFSDVGWNDWIVAPPGYQAFYCHGDCPFPLADHLNSTNHAIVQTLVNSVNSSIPKACCVPTELSAISMLYLDEYDKVVLKNYQEMVVEGCGCR
